Data from patent publication US20240368286A1 (SHANGHAI JMT BIO TECHNOLOGY, published 2024).

T1: Human GFRAL-His protein (human, UniProt Q6UXV0 19-351)
T1 construct: also called human GFRAL-His fusion protein; not shown: His tag
T1 sequence (looked up): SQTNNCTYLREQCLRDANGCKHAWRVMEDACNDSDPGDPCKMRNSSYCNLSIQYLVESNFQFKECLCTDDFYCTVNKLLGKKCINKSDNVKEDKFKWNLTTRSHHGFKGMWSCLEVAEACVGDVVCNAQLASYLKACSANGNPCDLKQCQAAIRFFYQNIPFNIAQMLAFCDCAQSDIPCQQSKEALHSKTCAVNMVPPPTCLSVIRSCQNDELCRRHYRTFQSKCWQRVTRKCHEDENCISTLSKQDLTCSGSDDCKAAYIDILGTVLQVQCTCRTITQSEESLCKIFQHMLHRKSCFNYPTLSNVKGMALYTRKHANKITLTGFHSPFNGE

T2: Mouse GFRAL-Fc protein (mouse, UniProt Q6SJE0 20-349, limits assumed)
T2 construct: not shown: Fc
T2 sequence (looked up): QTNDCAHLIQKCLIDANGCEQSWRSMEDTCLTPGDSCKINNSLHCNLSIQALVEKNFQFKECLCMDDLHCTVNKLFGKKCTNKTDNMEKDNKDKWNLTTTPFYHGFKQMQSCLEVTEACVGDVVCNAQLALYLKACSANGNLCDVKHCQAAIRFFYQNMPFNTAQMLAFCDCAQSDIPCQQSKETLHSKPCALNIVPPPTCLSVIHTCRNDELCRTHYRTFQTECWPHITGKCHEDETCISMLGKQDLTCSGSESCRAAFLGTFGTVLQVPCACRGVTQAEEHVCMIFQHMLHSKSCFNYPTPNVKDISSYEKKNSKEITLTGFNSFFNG

T3: Human GFRAL (hGFRAL) on HEK293 reporter cells with human RET (human, UniProt Q6UXV0 19-394)
T3 sequence (looked up): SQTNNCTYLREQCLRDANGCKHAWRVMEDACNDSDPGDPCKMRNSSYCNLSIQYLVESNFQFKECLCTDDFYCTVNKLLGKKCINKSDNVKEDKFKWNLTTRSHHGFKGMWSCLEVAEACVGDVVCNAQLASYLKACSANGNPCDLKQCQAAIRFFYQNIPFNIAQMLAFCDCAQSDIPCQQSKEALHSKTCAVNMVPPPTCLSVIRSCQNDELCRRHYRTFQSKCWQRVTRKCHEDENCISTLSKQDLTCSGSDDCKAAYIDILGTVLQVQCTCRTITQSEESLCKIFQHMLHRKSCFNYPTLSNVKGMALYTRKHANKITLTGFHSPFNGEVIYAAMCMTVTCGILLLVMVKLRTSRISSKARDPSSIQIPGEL

T4: Mouse GFRAL (mGFRAL) on HEK293 reporter cells with mouse RET (mouse, UniProt Q6SJE0 20-393)
T4 sequence (looked up): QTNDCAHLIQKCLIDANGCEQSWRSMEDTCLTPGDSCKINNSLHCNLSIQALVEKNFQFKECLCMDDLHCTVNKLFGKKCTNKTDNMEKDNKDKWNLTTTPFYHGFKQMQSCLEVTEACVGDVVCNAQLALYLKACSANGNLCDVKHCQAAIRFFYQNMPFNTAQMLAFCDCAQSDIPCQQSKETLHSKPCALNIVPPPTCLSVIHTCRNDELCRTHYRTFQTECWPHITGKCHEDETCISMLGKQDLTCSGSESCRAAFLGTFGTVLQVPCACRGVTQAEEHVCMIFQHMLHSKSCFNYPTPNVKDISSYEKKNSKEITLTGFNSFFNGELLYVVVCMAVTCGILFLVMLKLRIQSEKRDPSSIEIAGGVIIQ

T5: Human GFRAL protein (Biacore analyte) (human, UniProt Q6UXV0 19-351, limits assumed)
T5 construct: also called hGFRAL
T5 sequence (looked up): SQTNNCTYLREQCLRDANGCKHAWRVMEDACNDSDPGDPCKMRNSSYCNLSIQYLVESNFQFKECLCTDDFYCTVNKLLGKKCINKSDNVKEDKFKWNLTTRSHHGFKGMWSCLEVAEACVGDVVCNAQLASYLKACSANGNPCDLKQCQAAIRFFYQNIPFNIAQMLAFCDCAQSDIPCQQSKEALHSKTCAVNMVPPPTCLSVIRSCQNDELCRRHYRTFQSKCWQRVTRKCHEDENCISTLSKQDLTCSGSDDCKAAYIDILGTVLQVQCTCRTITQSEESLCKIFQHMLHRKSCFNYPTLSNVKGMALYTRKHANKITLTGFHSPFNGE


What was measured:
Human GFRAL-His protein = target: T1, Human GFRAL-His protein; assay: ELISA, antigen coated on plate, purified antibody titrated, HRP anti-mouse IgG detection
Description: (§1) The ELISA assay had the following protocols. Human GFRAL-His protein, cynomolgus monkey GFRAL-His protein, or mouse GFRAL-Fc protein were coated on 96-well plates, and after blocking the wells with PBS/1% BSA solution, the hybridoma supernatant or purified antibodies were added to the reaction wells. After incubation for 1 hour at room temperature, HRP-labeled anti-mouse IgG (Fab region) antibody was added to the reaction wells to incubate for an additional hour at room temperature. After the substrate and stop solution were added successively, the OD₄₅₀ values were read. The OD₄₅₀ values were used to verify and assess the binding ability of the antibodies to the GFRAL proteins.

Mouse GFRAL-Fc protein = target: T2, Mouse GFRAL-Fc protein; assay: as above
Description: as §1

[1] = target: Cynomolgus monkey GFRAL-His protein (cynomolgus monkey); assay: as above
Description: as §1

[2] = target: T3, Human GFRAL (hGFRAL) on HEK293 reporter …; assay: cell-based or functional assay
[3] = target: T4, Mouse GFRAL (mGFRAL) on HEK293 reporter …; assay: cell-based or functional assay
[4] = target: T5, Human GFRAL protein (Biacore analyte); assay: Biacore SPR, antibody captured via anti-human Fc on CM5, GFRAL injected, 25 C
Description: Binding affinity assays were performed for three antibody strains 168A7, 8E10 and 26D7 based on the Biacore affinity assay. The binding affinities of purified antibodies to human or mouse GFRAL were assessed by measuring the equilibrium dissociation constants (KD). The anti-human Fc antibody was immobilized in the flow cell of the CM5 chip according to the instructions of the amino-coupled kit (catalogue number: BR100050, Cytiva). Purified antibodies (˜300 RU) were captured on flow cells 2, 3 and 4 using flow cell 1 as a reference. Human or mouse GFRAL protein (in an HBS-EP buffer) was then injected at a flow rate of 30 μL/min and the binding kinetics were evaluated at 25° C. The results were as follows (FIGS. 1A-1C, Table 4)

EC50 (Human GFRAL-His protein) [nM] | EC50 (Mouse GFRAL-Fc protein) [nM] | EC50 [1] [nM] | IC50 (nM), luciferase reporter gene assay, Human GFRAL/human RET [2] [nM] | IC50 (nM), luciferase reporter gene assay, Mouse GFRAL/mouse RET [3] [nM] | Kd [4] [nM] | koff [4] [s⁻¹] | Binder
0.09 | 0.08 | 0.1 | 11.6 | 2.23 |  |  | 2D4 (antibody, V domains shown, Murine hybridoma antibody, purified) VH: EVNLVESGGGLVKPGGPLKLSCAASGFTFSSFVMSWVRQTPEKRLEWVASITSGGTTFYPDSVKGRFTISRDNARNILYLQMSNLRSGDTAMYYCARGPPQFSSLSMDYWGQGTSVTVSS VL: DIVMTQSQKFMSTSVGDRITITCKASQNVGTAVSWFQQKPGQVPKLLIYSASNRYTGVPDRFTGSGSGTEFTLTISNIQSEDLADYFCQQYSSLFTFGSGTKLEIK
0.28 | 0.14 | 0.07 | 104 | > 694 |  |  | 174D6 (antibody, V domains shown, Murine hybridoma antibody, purified) VH: QVQLKQSGPGLVQPSQSLSITCTVSGFSLTSYGVHWVRQSPGKGLEWLGVIWSGGRTDYNAAFISRLNISKDSSKSQVFFKMNSLQADDTAIYYCARKGSSYYGLYYYGMDFWGQGTSVTVSS VL: not shown
0.18 | 0.12 | 0.06 | 37.2 | 105 |  |  | 174E10 (antibody, V domains shown, Murine hybridoma antibody, purified) VH: QVQLKQSGPGLVQPSQSLSITCTVSGFSLTSYGVHWVRQSPGKGLEWLGVIWSGGRIDYNAAFISRLSISKDNSKSQVFFKMNSLQADDTAIYYCARKGSSYYGLYYYGMDYWGQGTSVTVSS VL: DIVMTQSPSSLTVTAGEKVTMSCKSSQSLLNSGNQKNYLTWYQQKSGQTPKLLIYWASTRESGVPDRFTGSGSGTDFTLTISSVQAEDLAVYYCQNDYGYPLTFGAGTKLELK
1.87 |  | 0.09 | 3.29 | > 694 | 0.00145 | 7.06e-05 | 168A7 (antibody, V domains shown, Murine hybridoma antibody, purified) VH: QVTLKESGPGILKPSQTLSLTCSFSGFSLSTSDMGVGWIRQPSGKGLEWLAHIWWDDDKYYNPSLKRQLTISKDNSRNQVFLKISSVDTTDTATYYCARLYDYDDEYYFDYWGQGTTLTVSS VL: DIQMTQTKSSLSASLGDRVTISCRASQDSNNYLNWYQQKPDGTVKLLIYYTSRLHSGVPSRFSGSGSGTDYSLTISNLEHEDIATYFCQQGNTIPWTFGGGTKLEIK
0.27 | 0.12 | 0.03 | 55.5 | 7.22 |  |  | 165C5 (antibody, V domains shown, Murine hybridoma antibody, purified) VH: EVKLVESGGGLVKPGGSLKLSCAASGFTFSSYAMSWVRQTPEKRLEWVASITTGGSTYYLDSVRGRFTISRDNARNILSLQMSSLRSEDTAIYYCARSLIITATGFDYWGQGTTLTVSS VL: DIVMTQSQKFMSISVGDRVNITCRASQDVGTAVAWYQQKPGQSPKLLIYSASNRYTGVPNRFTGSGSGTDFTLAISNMQSEDLADYFCQQYSIYYTFGGGTKLEIK
0.05 |  | 0.06 | 3.33 | > 694 | 0.0179 | 0.000404 | 8E10 (antibody, V domains shown, Murine hybridoma antibody, purified) VH: QVQLQQSGSELVRPGSSVKISCRASGYTFSNYWMNWVKQRPGQGLEWIGQIYPGDDDADYNGKFQGKATLTADKSSSTAYMQLNTLTSEDSAVYFCTRSGRRDFDYWGQGTTLTVSS VL: NIVLTQSPASLAVSLGQRATISCRASESIDNYGNSFMHWYQQKPGQPPKLLIYRASNLESGVPARFSGSGSRTDFTLTIDPVEADDAATYYCQQNNEDPYTFGGGTKLEIK
